Data: paper PMC3955401 (Nature, 2013)
No end group written: not given here.

Columns and labels:
Assay in all cases: pull-down
GST-53BP1 Tudor-UDR = GST-53BP1 Tudor-UDR (UniProt Q12888 1484-1631)
GST-53BP1 Tudor = GST-53BP1 Tudor (UniProt Q12888 1484-1603)
[1] = molecular target: GST-53BP1 Tudor-UDR L1619A (UniProt Q12888 1484-1631, L1619A)

Measured: binding result

Chain of GST-53BP1 Tudor-UDR (Q12888 1484-1631): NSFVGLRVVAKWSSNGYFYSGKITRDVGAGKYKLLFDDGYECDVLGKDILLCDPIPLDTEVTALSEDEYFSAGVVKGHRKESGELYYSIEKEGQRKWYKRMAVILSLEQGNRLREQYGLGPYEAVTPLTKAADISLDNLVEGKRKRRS
Chain of GST-53BP1 Tudor-UDR L1619A (Q12888 1484-1631 L1619A): as the sequence (Q12888 1484-1631) above, with L136A counted along it
Chain of GST-53BP1 Tudor (Q12888 1484-1603): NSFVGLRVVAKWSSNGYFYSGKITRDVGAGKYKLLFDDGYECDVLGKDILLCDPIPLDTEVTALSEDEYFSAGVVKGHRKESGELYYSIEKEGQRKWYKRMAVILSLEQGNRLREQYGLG

YGKGGAKRHRK(dimethyl)VLRD [H4K20me2 peptide]
binds: all assays above
